# B1: Angiomotin (Homo sapiens), Q4VCS5 (parent)
# chain: MRNSEEQPSGGTTVLQRLLQEQLRYGNPSENRSLLAIHQQATGNGPPFPSGSGNPGPQSDVLSPQDHHQQLVAHAARQEPQGQEIQSENLIMEKQLSPRMQNNEELPTYEEAKVQSQYFRGQQHASVGAAFYVTGVTNQKMRTEGRPSVQRLNPGKMHQDEGLRDLKQGHVRSLSERLMQMSLATSGVKAHPPVTSAPLSPPQPNDLYKNPTSSSEFYKAQGPLPNQHSLKGMEHRGPPPEYPFKGMPPQSVVCKPQEPGHFYSEHRLNQPGRTEGQLMRYQHPPEYGAARPAQDISLPLSARNSQPHSPTSSLTSGGSLPLLQSPPSTRLSPARHPLVPNQGDHSAHLPRPQQHFLPNQAHQGDHYRLSQPGLSQQQQQQQQQHHHHHHHQQQQQQQPQQQPGEAYSAMPRAQPSSASYQPVPADPFAIVSRAQQMVEILSDENRNLRQELEGCYEKVARLQKVETEIQRVSEAYENLVKSSSKREALEKAMRNKLEGEIRRMHDFNRDLRERLETANKQLAEKEYEGSEDTRKTISQLFAKNKESQREKEKLEAELATARSTNEDQRRHIEIRDQALSNAQAKVVKLEEELKKKQVYVDKVEKMQQALVQLQAACEKREQLEHRLRTRLERELESLRIQQRQGNCQPTNVSEYNAAALMELLREKEERILALEADMTKWEQKYLEENVMRHFALDAAATVAAQRDTTVISHSPNTSYDTALEARIQKEEEEILMANKRCLDMEGRIKTLHAQIIEKDAMIKVLQQRSRKEPSKTEQLSCMRPAKSLMSISNAGSGLLSHSSTLTGSPIMEEKRDDKSWKGSLGILLGGDYRAEYVPSTPSPVPPSTPLLSAHSKTGSRDCSTQTERGTESNKTAAVAPISVPAPVAAAATAAAITATAATITTTMVAAAPVAVAAAAAPAAAAAPSPATAAATAAAVSPAAAGQIPAAASVASAAAVAPSAAAAAAVQVAPAAPAPVPAPALVPVPAPAAAQASAPAQTQAPTSAPAVAPTPAPTPTPAVAQAEVPASPATGPGPHRLSIPSLTCNPDKTDGPVFHSNTLERKTPIQILGQEPDAEMVEYLI
# partner: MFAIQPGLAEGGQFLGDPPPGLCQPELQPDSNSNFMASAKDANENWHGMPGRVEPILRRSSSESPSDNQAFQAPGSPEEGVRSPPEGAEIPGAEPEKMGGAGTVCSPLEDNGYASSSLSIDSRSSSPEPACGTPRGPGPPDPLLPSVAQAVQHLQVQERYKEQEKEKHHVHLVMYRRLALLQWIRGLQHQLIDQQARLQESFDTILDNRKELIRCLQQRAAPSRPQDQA
# B2: Melanoma-associated antigen 8 (Homo sapiens), P43361 (parent)
# chain: MLLGQKSQRYKAEEGLQAQGEAPGLMDVQIPTAEEQKAASSSSTLIMGTLEEVTDSGSPSPPQSPEGASSSLTVTDSTLWSQSDEGSSSNEEEGPSTSPDPAHLESLFREALDEKVAELVRFLLRKYQIKEPVTKAEMLESVIKNYKNHFPDIFSKASECMQVIFGIDVKEVDPAGHSYILVTCLGLSYDGLLGDDQSTPKTGLLIIVLGMILMEGSRAPEEAIWEALSVMGLYDGREHSVYWKLRKLLTQEWVQENYLEYRQAPGSDPVRYEFLWGPRALAETSYVKVLEHVVRVNARVRISYPSLHEEALGEEKGV
# partner: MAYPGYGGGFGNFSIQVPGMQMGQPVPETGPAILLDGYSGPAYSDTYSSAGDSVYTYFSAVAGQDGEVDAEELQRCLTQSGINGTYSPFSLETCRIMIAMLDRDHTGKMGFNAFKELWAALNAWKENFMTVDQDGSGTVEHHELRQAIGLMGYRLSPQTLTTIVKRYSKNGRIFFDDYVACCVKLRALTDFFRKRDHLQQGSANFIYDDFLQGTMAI
# B3: Acylamino-acid-releasing enzyme (Homo sapiens), P13798 (parent)
# chain: MERQVLLSEPEEAAALYRGLSRQPALSAACLGPEVTTQYGGQYRTVHTEWTQRDLERMENIRFCRQYLVFHDGDSVVFAGPAGNSVETRGELLSRESPSGTMKAVLRKAGGTGPGEEKQFLEVWEKNRKLKSFNLSALEKHGPVYEDDCFGCLSWSHSETHLLYVAEKKRPKAESFFQTKALDVSASDDEIARLKKPDQAIKGDQFVFYEDWGENMVSKSIPVLCVLDVESGNISVLEGVPENVSPGQAFWAPGDAGVVFVGWWHEPFRLGIRFCTNRRSALYYVDLIGGKCELLSDDSLAVSSPRLSPDQCRIVYLQYPSLIPHHQCSQLCLYDWYTKVTSVVVDVVPRQLGENFSGIYCSLLPLGCWSADSQRVVFDSAQRSRQDLFAVDTQVGTVTSLTAGGSGGSWKLLTIDQDLMVAQFSTPSLPPTLKVGFLPSAGKEQSVLWVSLEEAEPIPDIHWGIRVLQPPPEQENVQYAGLDFEAILLQPGSPPDKTQVPMVVMPHGGPHSSFVTAWMLFPAMLCKMGFAVLLVNYRGSTGFGQDSILSLPGNVGHQDVKDVQFAVEQVLQEEHFDASHVALMGGSHGGFISCHLIGQYPETYRACVARNPVINIASMLGSTDIPDWCVVEAGFPFSSDCLPDLSVWAEMLDKSPIRYIPQVKTPLLLMLGQEDRRVPFKQGMEYYRALKTRNVPVRLLLYPKSTHALSEVEVESDSFMNAVLWLRTHLGS
# B4: Mannose-1-phosphate guanylyltransferase regulatory subunit alpha (Homo sapiens), Q96IJ6 (parent)
# chain: MLKAVILIGGPQKGTRFRPLSFEVPKPLFPVAGVPMIQHHIEACAQVPGMQEILLIGFYQPDEPLTQFLEAAQQEFNLPVRYLQEFAPLGTGGGLYHFRDQILAGSPEAFFVLNADVCSDFPLSAMLEAHRRQRHPFLLLGTTANRTQSLNYGCIVENPQTHEVLHYVEKPSTFISDIINCGIYLFSPEALKPLRDVFQRNQQDGQLEDSPGLWPGAGTIRLEQDVFSALAGQGQIYVHLTDGIWSQIKSAGSALYASRLYLSRYQDTHPERLAKHTPGGPWIRGNVYIHPTAKVAPSAVLGPNVSIGKGVTVGEGVRLRESIVLHGATLQEHTCVLHSIVGWGSTVGRWARVEGTPSDPNPNDPRARMDSESLFKDGKLLPAITILGCRVRIPAEVLILNSIVLPHKELSRSFTNQIIL
# Variants of: B1
# Conditions: with ca216_human C1orf216, Q8TAB5
row,effect of a mutation on the interaction,Variant
1,with no effect,T899A

# Variants of: B2
# Conditions: with gran_human GCA
row,effect of a mutation on the interaction,Variant
1,with no effect,R9C
2,with no effect,R121H

# Variants of: B3
# Conditions: with leg8_human LGALS8, O00214
# leg8_human LGALS8, O00214, sequence (O00214 whole entry): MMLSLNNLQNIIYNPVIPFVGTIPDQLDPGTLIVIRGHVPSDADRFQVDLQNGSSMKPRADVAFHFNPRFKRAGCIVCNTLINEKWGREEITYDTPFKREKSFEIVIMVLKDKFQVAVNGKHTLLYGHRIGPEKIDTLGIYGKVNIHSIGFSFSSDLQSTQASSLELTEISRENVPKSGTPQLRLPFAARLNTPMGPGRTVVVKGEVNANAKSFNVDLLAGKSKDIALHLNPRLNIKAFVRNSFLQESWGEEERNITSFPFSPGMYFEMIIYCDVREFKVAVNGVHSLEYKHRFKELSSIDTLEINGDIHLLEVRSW
row,effect of a mutation on the interaction,Variant
1,disrupting interaction strength,F378S

# Variants of: B4
# Conditions: with gmppb_human GMPPB
row,effect of a mutation on the interaction,Variant
1,with no effect,V156I

# Reference: IntAct's records for PubMed 31515488
